The experiment concerns the target intracellular (IC) wildtype penton of ASFV, HA-tagged (African swine fever virus (ASFV) Georgia 2007/1) (UniProt Q65190). Description: non-reducing SDS-PAGE with Western blot. (In general: In western blotting, separated proteins are transferred to a membrane and probed.)

One may read the stoichiometry N as the number of molecules, sites or subunits per partner or assembly.

“intracellular (IC) wildtype penton of ASFV, HA-tagged (from UniProt Q65190 1-240) (natural protein)”: the percent pentamer stood at 30% and the stoichiometry N was 5.

Values taken from doi:10.1101/2024.10.06.616851.
